Experimental data reported in patent publication US20250011363A1, “OPTIMIZED SHORTENED PEPTIDE THAT BINDS TO ACETYLCHOLINE RECEPTOR, AND USE THEREOF” (SKINMED CO., LTD., priority 2021, published 2025).

These substances were tested against acetylcholine receptor (Homo sapiens, UniProt P02708) (assay: SPR binding affinity (RU) of optimized 5mer/6mer/7mer peptides, Examples 6-7). Details: SPR, Resonance Units; 5mer Bottom sequence (bottom combinations); peptides tested at 10 μM.
Summary of the method: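 Synthetic 5mer and 6mer peptides, built from frequent or infrequent amino-acid combinations, were tested at 10 μM for binding to the human acetylcholine receptor by surface plasmon resonance. Binding is reported in response units (RU).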

Sequence of acetylcholine receptor (P02708 21-457): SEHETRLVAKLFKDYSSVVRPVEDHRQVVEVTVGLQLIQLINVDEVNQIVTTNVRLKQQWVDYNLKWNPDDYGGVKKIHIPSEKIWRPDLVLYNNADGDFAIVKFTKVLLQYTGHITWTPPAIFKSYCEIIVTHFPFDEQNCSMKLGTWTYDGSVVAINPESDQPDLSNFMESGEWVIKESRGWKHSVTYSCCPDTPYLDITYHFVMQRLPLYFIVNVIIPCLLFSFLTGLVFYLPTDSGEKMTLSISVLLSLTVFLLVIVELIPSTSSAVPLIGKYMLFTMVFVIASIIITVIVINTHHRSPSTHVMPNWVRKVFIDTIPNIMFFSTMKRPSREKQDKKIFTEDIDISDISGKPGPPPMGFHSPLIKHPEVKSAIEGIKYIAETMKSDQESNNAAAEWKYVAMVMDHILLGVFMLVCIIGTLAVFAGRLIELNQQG

Row | Substance | Binding affinity [Ru]
1 | 5mer-1003 (RMTVR) | 11
2 | 5mer-1004 (RDADR) | 30
3 | 5mer-1005 (RTHGR) | 30
4 | 5mer-1006 (KEPER) | 17
5 | 5mer-1007 (RDMMR) | 30
6 | 5mer-1008 (KDSNR) | 11
7 | 5mer-1009 (KMCAK) | 29
8 | 5mer-1010 (KCDNK) | 16
9 | 5mer-1011 (KTDMK) | 25
10 | 5mer-1012 (RHKVR) | 22
11 | 5mer-1013 (KCCVK) | 19
12 | 5mer-1014 (RKNKR) | 23
13 | 5mer-1015 (RCWMK) | 30
14 | 5mer-1016 (KYTMR) | 28
15 | 5mer-1017 (RCTWK) | 24
16 | 5mer-1018 (KFWAK) | 20
17 | 5mer-1019 (RFKFK) | 28
18 | 5mer-1020 (KCKVK) | 12
19 | 5mer-1021 (KITHK) | 26
20 | 5mer-1022 (KIADK) | 29
21 | 5mer-1023 (RYCKK) | 13
22 | 5mer-1024 (KIDNK) | 26

Row | Substance | Binding affinity [Ru]
23 | 5mer-1025 (RHKWK) | 25
24 | 5mer-1026 (RNAVR) | 20
25 | 5mer-1027 (KNTNR) | 28
26 | 5mer-1028 (RMAMR) | 28
27 | 5mer-1029 (KADIK) | 25
28 | 5mer-1030 (RISDK) | 18
29 | 5mer-1031 (RKEER) | 13
30 | 5mer-1032 (RHHMR) | 23
31 | 5mer-1033 (REWDK) | 28
32 | 5mer-1034 (RFAKK) | 14
33 | 5mer-1035 (KEHVR) | 19
34 | 5mer-1036 (KTHMK) | 23
35 | 5mer-1037 (KKSFR) | 28
36 | 5mer-1038 (KCCKR) | 17
37 | 5mer-1039 (KKDVK) | 32
38 | 5mer-1040 (KTPWR) | 17
39 | 5mer-1041 (RDWFK) | 27
40 | 5mer-1042 (RCCAK) | 28
41 | 5mer-1043 (KFEMK) | 15
42 | 5mer-1044 (RDCFK) | 22
43 | 5mer-1045 (KMDEK) | 22
44 | 5mer-1046 (KHTMR) | 19

Row | Substance | Binding affinity [Ru]
45 | 5mer-1047 (KAHMR) | 23
46 | 5mer-1048 (KYDNK) | 12
47 | 5mer-1049 (KPPGR) | 29
48 | 5mer-1050 (KPEDR) | 31
49 | 5mer-1051 (RYAHR) | 28
50 | 5mer-1052 (RNDWR) | 17
51 | 5mer-1053 (KHEHK) | 27
52 | 5mer-1054 (RNKVR) | 21
53 | 5mer-1055 (KHHEK) | 15
54 | 5mer-1056 (RCTPK) | 11
55 | 5mer-1057 (RFDPK) | 13
56 | 5mer-1058 (KIPWR) | 25
57 | 5mer-1059 (RMAGR) | 29
58 | 5mer-1060 (KTHIK) | 29
59 | 5mer-1061 (KDSFR) | 24
60 | 5mer-1062 (RAPWR) | 24
61 | 5mer-1063 (RPHVK) | 20
62 | 5mer-1064 (KCMKR) | 20
63 | 5mer-1065 (KNPIR) | 18
64 | 5mer-1066 (RFWVK) | 25
65 | 5mer-1067 (KHENK) | 23
66 | 5mer-1068 (RMHKK) | 11

Row | Substance | Binding affinity [Ru]
67 | 5mer-1069 (RPSFK) | 31
68 | 5mer-1070 (RETGK) | 26
69 | 5mer-1071 (RYEGR) | 16
70 | 5mer-1072 (KDWPK) | 32
71 | 5mer-1073 (RDEAK) | 29
72 | 5mer-1074 (RPCPR) | 17
73 | 5mer-1075 (RKHIK) | 26
74 | 5mer-1076 (KFEKK) | 21
75 | 5mer-1077 (KADMK) | 12
76 | 5mer-1078 (KEAWK) | 19
77 | 5mer-1079 (KYTGR) | 31
78 | 5mer-1080 (RYTHK) | 25
79 | 5mer-1081 (RPNVR) | 13
80 | 5mer-1082 (RACFR) | 11
81 | 5mer-1083 (KFSVR) | 31
82 | 5mer-1084 (RTHDR) | 21
83 | 5mer-1085 (RTTER) | 14
84 | 5mer-1086 (RIWDR) | 19
85 | 5mer-1087 (KKKKR) | 11
86 | 5mer-1088 (KAKKK) | 16
87 | 5mer-1089 (KTHHR) | 29
88 | 5mer-1090 (KISGK) | 31

Row | Substance | Binding affinity [Ru]
89 | 5mer-1091 (KTEHR) | 29
90 | 5mer-1092 (KPMVK) | 12
91 | 5mer-1093 (REEDK) | 32
92 | 5mer-1094 (RYSMK) | 15
93 | 5mer-1095 (KAEKR) | 27
94 | 5mer-1096 (RPTDK) | 15
95 | 5mer-1097 (KPDIR) | 28
96 | 5mer-1098 (RFHGR) | 31
97 | 5mer-1099 (RATAR) | 14
98 | 5mer-1100 (RPWKR) | 24
99 | 5mer-1101 (KYKNR) | 11
100 | 5mer-1102 (KTHKK) | 20
101 | 5mer-1103 (KKSHR) | 18
102 | 5mer-1104 (RETHK) | 12
103 | 5mer-1105 (RPTKR) | 33
104 | 5mer-1106 (RYTER) | 18
105 | 5mer-1107 (RPWHK) | 21
106 | 5mer-1108 (RNPIR) | 19
107 | 5mer-1109 (KCHPK) | 14
108 | 5mer-1110 (RMHMK) | 13
109 | 5mer-1111 (KAEHK) | 12

Same assay, conditions: SPR; peptides tested at 10 μM; 5mer Bottom sequence

Row | Substance | Binding affinity [Ru]
110 | 5mer-1112 (RTTFK) | 29
111 | 5mer-1113 (RHMER) | 19
112 | 5mer-1114 (RKTFR) | 28
113 | 5mer-1115 (KEPEK) | 27
114 | 5mer-1116 (KECFR) | 24
115 | 5mer-1117 (RHKIR) | 11
116 | 5mer-1118 (RMDAR) | 28
117 | 5mer-1119 (KMNIK) | 19
118 | 5mer-1120 (RPPDR) | 33
119 | 5mer-1121 (RFKVK) | 29
120 | 5mer-1122 (RNTDR) | 14
121 | 5mer-1123 (KYEKR) | 24
122 | 5mer-1124 (KKPVK) | 30
123 | 5mer-1125 (RYPFK) | 29
124 | 5mer-1126 (KPTHK) | 26
125 | 5mer-1127 (RIADR) | 16
126 | 5mer-1128 (REWVR) | 26
127 | 5mer-1129 (KFDAR) | 14
128 | 5mer-1130 (RFMVR) | 17
129 | 5mer-1131 (KCDGK) | 14

Row | Substance | Binding affinity [Ru]
130 | 5mer-1132 (KFSMK) | 19
131 | 5mer-1133 (KCSMK) | 23
132 | 5mer-1134 (RTCKR) | 26
133 | 5mer-1135 (RHTAR) | 17
134 | 5mer-1136 (KNSAR) | 25
135 | 5mer-1137 (KEEEK) | 22
136 | 5mer-1138 (RENHK) | 24
137 | 5mer-1139 (KHCWK) | 28
138 | 5mer-1140 (RNEFK) | 28
139 | 5mer-1141 (REEVR) | 26
140 | 5mer-1142 (KTENK) | 24
141 | 5mer-1143 (RATGK) | 19
142 | 5mer-1144 (KAKNR) | 33
143 | 5mer-1145 (RMPAK) | 25
144 | 5mer-1146 (KPHGR) | 23
145 | 5mer-1147 (RDTGK) | 16
146 | 5mer-1148 (RDWFR) | 24
147 | 5mer-1149 (KETDR) | 25
148 | 5mer-1150 (KFTNR) | 12
149 | 5mer-1151 (KTNAR) | 26

Row | Substance | Binding affinity [Ru]
150 | 5mer-1152 (KENFK) | 18
151 | 5mer-1153 (RDAPR) | 27
152 | 5mer-1154 (KCWVR) | 12
153 | 5mer-1155 (RYDMK) | 25
154 | 5mer-1156 (KKMNK) | 13
155 | 5mer-1157 (KTSHR) | 21
156 | 5mer-1158 (KYNPR) | 23
157 | 5mer-1159 (KKWKK) | 17
158 | 5mer-1160 (KETWR) | 14
159 | 5mer-1161 (KCHDR) | 21
160 | 5mer-1162 (KIKKK) | 15
161 | 5mer-1163 (KKSKR) | 12
162 | 5mer-1164 (RFPWR) | 33
163 | 5mer-1165 (RNMNR) | 21
164 | 5mer-1166 (KTHEK) | 32
165 | 5mer-1167 (KESWK) | 12
166 | 5mer-1168 (RHHWR) | 31
167 | 5mer-1169 (KDTPK) | 29
168 | 5mer-1170 (KHSEK) | 28
169 | 5mer-1171 (RCSWK) | 21
